Source: the supplement of paper PMC9112550, “Optimization of the antimicrobial peptide Bac7 by deep mutational scanning” (BMC Biology, 2022)

Test system: Escherichia coli TOP10
Assay: shrunken log2 fold change of peptide-encoding DNA abundance (4.5 h post-induction vs induction); higher = less antimicrobial activity (less host growth inhibition)
Settings: time post-induction: 4.5 h; library: site-saturation at positions 5, 18, 19, 20
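Further: peptides expressed intracellularly from a pBAD plasmid library in pooled LB shake-flask culture, induced with 0.3% L-arabinose, DNA abundance read by NGS, three biological replicates, DESeq2 with apeglm shrinkage.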

RRIRDRPPRLPRPRPRPPLGPRP
shrunken log2 fold change: 0.547

RRIRIRPPRLPRPRPRPVWYPRP
shrunken log2 fold change: -0.84

RRIRKRPPRLPRPRPRPSFFPRP
shrunken log2 fold change: -0.0585

RRIRGRPPRLPRPRPRPGGHPRP
shrunken log2 fold change: 0.779

RRIRFRPPRLPRPRPRPNPYPRP
shrunken log2 fold change: -0.238

RRIRERPPRLPRPRPRPGEFPRP
shrunken log2 fold change: 0.033

RRIRSRPPRLPRPRPRPYRGPRP
shrunken log2 fold change: -0.131

RRIRDRPPRLPRPRPRPGGFPRP
shrunken log2 fold change: 0.134

RRIRTRPPRLPRPRPRPVWRPRP
shrunken log2 fold change: 0.302

RRIRFRPPRLPRPRPRPFACPRP
shrunken log2 fold change: -0.189

RRIRVRPPRLPRPRPRPIIVPRP
shrunken log2 fold change: 0.0713

RRIRLRPPRLPRPRPRPMGIPRP
shrunken log2 fold change: 0.0924

RRIRLRPPRLPRPRPRPQNCPRP
shrunken log2 fold change: 0.0117

RRIRGRPPRLPRPRPRPAYFPRP
shrunken log2 fold change: 0.235

RRIRGRPPRLPRPRPRPDDCPRP
shrunken log2 fold change: 0.152

RRIRMRPPRLPRPRPRPDCVPRP
shrunken log2 fold change: 1.71

RRIRDRPPRLPRPRPRPVHCPRP
shrunken log2 fold change: -0.0301

RRIRWRPPRLPRPRPRPDRSPRP
shrunken log2 fold change: 0.0405

RRIRYRPPRLPRPRPRPPMPPRP
shrunken log2 fold change: 0.0328

RRIRWRPPRLPRPRPRPLGGPRP
shrunken log2 fold change: 0.253

RRIRPRPPRLPRPRPRPVCEPRP
shrunken log2 fold change: 0.227

RRIRFRPPRLPRPRPRPRHYPRP
shrunken log2 fold change: -0.477

RRIRFRPPRLPRPRPRPDSTPRP
shrunken log2 fold change: -0.596

RRIRGRPPRLPRPRPRPRDNPRP
shrunken log2 fold change: 0.0439

RRIRGRPPRLPRPRPRPNLSPRP
shrunken log2 fold change: 0.477

RRIRLRPPRLPRPRPRPDMEPRP
shrunken log2 fold change: 0.0384

RRIRCRPPRLPRPRPRPKFDPRP
shrunken log2 fold change: -0.0305

RRIRSRPPRLPRPRPRPPDVPRP
shrunken log2 fold change: 0.14

RRIRLRPPRLPRPRPRPNPWPRP
shrunken log2 fold change: 0.0455

RRIRCRPPRLPRPRPRPAETPRP
shrunken log2 fold change: -0.035

RRIRIRPPRLPRPRPRPLIGPRP
shrunken log2 fold change: -0.0888

RRIRARPPRLPRPRPRPDCPPRP
shrunken log2 fold change: 0.337

RRIRTRPPRLPRPRPRPDMYPRP
shrunken log2 fold change: -0.235

RRIRSRPPRLPRPRPRPYKLPRP
shrunken log2 fold change: -0.399

RRIRMRPPRLPRPRPRPYMQPRP
shrunken log2 fold change: -0.338

RRIRDRPPRLPRPRPRPTLCPRP
shrunken log2 fold change: 0.33

RRIRFRPPRLPRPRPRPDWRPRP
shrunken log2 fold change: 0.0737

RRIRQRPPRLPRPRPRPIPTPRP
shrunken log2 fold change: -0.0272

RRIRGRPPRLPRPRPRPCDQPRP
shrunken log2 fold change: -0.0239

RRIRSRPPRLPRPRPRPPDNPRP
shrunken log2 fold change: -0.0697

RRIRGRPPRLPRPRPRPNERPRP
shrunken log2 fold change: 0.108

RRIRYRPPRLPRPRPRPQPSPRP
shrunken log2 fold change: 0.0385

RRIRGRPPRLPRPRPRPEIRPRP
shrunken log2 fold change: 0.122

RRIRGRPPRLPRPRPRPMQTPRP
shrunken log2 fold change: 0.0492

RRIRQRPPRLPRPRPRPHTAPRP
shrunken log2 fold change: -0.926

RRIRSRPPRLPRPRPRPTSLPRP
shrunken log2 fold change: 0.074

RRIRGRPPRLPRPRPRPGGDPRP
shrunken log2 fold change: 0.937

RRIRARPPRLPRPRPRPMLDPRP
shrunken log2 fold change: 0.504

RRIRPRPPRLPRPRPRPERQPRP
shrunken log2 fold change: 0.153

RRIRCRPPRLPRPRPRPKVFPRP
shrunken log2 fold change: 0.0792

RRIRGRPPRLPRPRPRPCLGPRP
shrunken log2 fold change: 0.0741

RRIRNRPPRLPRPRPRPAFYPRP
shrunken log2 fold change: -0.065

RRIRDRPPRLPRPRPRPGFNPRP
shrunken log2 fold change: 0.125

RRIRMRPPRLPRPRPRPITFPRP
shrunken log2 fold change: 0.0589

RRIRDRPPRLPRPRPRPCFEPRP
shrunken log2 fold change: 0.708

RRIRKRPPRLPRPRPRPSFVPRP
shrunken log2 fold change: -0.174

RRIRKRPPRLPRPRPRPDVWPRP
shrunken log2 fold change: 0.679

RRIRCRPPRLPRPRPRPQHHPRP
shrunken log2 fold change: -0.46

RRIRARPPRLPRPRPRPSLVPRP
shrunken log2 fold change: 0.413

RRIRVRPPRLPRPRPRPEFSPRP
shrunken log2 fold change: -0.0024

RRIRVRPPRLPRPRPRPNPKPRP
shrunken log2 fold change: -0.0645

RRIRARPPRLPRPRPRPDPWPRP
shrunken log2 fold change: 0.308

RRIRNRPPRLPRPRPRPGDKPRP
shrunken log2 fold change: -0.105

RRIRERPPRLPRPRPRPEADPRP
shrunken log2 fold change: 0.0032

RRIRPRPPRLPRPRPRPNSEPRP
shrunken log2 fold change: -0.211

RRIRLRPPRLPRPRPRPANCPRP
shrunken log2 fold change: -0.291

RRIRFRPPRLPRPRPRPRITPRP
shrunken log2 fold change: -0.657

RRIRCRPPRLPRPRPRPGNYPRP
shrunken log2 fold change: -0.516

RRIRHRPPRLPRPRPRPLTKPRP
shrunken log2 fold change: 0.133

RRIRCRPPRLPRPRPRPIKIPRP
shrunken log2 fold change: -0.436

RRIRVRPPRLPRPRPRPGRLPRP
shrunken log2 fold change: -0.0194

RRIRWRPPRLPRPRPRPGERPRP
shrunken log2 fold change: 0.303

RRIRFRPPRLPRPRPRPDCKPRP
shrunken log2 fold change: 0.154

RRIRMRPPRLPRPRPRPTSEPRP
shrunken log2 fold change: 0.511

RRIRSRPPRLPRPRPRPWIQPRP
shrunken log2 fold change: -0.00956

RRIRNRPPRLPRPRPRPMNWPRP
shrunken log2 fold change: 0.127

RRIRERPPRLPRPRPRPQWQPRP
shrunken log2 fold change: -0.109

RRIRPRPPRLPRPRPRPREPPRP
shrunken log2 fold change: 0.0876

RRIRVRPPRLPRPRPRPEEKPRP
shrunken log2 fold change: -0.0261

RRIRMRPPRLPRPRPRPPVIPRP
shrunken log2 fold change: 0.312

RRIRLRPPRLPRPRPRPDHRPRP
shrunken log2 fold change: -0.041

RRIRHRPPRLPRPRPRPHADPRP
shrunken log2 fold change: -0.208

RRIRARPPRLPRPRPRPTIHPRP
shrunken log2 fold change: -0.0543

RRIRHRPPRLPRPRPRPHRYPRP
shrunken log2 fold change: -0.136

RRIRFRPPRLPRPRPRPMLRPRP
shrunken log2 fold change: 0.0268

RRIRQRPPRLPRPRPRPAAIPRP
shrunken log2 fold change: 0.111

RRIRHRPPRLPRPRPRPYYTPRP
shrunken log2 fold change: -0.0493

RRIRWRPPRLPRPRPRPAFGPRP
shrunken log2 fold change: 0.53

RRIRRRPPRLPRPRPRPMKQPRP
shrunken log2 fold change: 0.134

RRIRIRPPRLPRPRPRPWIWPRP
shrunken log2 fold change: -0.109

RRIRFRPPRLPRPRPRPMPEPRP
shrunken log2 fold change: -0.0117

RRIRRRPPRLPRPRPRPAPFPRP
shrunken log2 fold change: 0.863

RRIRGRPPRLPRPRPRPLTKPRP
shrunken log2 fold change: 0.664

RRIRDRPPRLPRPRPRPEQKPRP
shrunken log2 fold change: 0.0533

RRIRQRPPRLPRPRPRPTTPPRP
shrunken log2 fold change: 0.402

RRIRCRPPRLPRPRPRPQTRPRP
shrunken log2 fold change: 0.471

RRIRSRPPRLPRPRPRPSWLPRP
shrunken log2 fold change: -0.101

RRIRTRPPRLPRPRPRPADCPRP
shrunken log2 fold change: -0.082

RRIRERPPRLPRPRPRPGEYPRP
shrunken log2 fold change: -0.267

RRIRYRPPRLPRPRPRPGIAPRP
shrunken log2 fold change: -0.269

RRIRQRPPRLPRPRPRPPAPPRP
shrunken log2 fold change: 0.399

RRIRMRPPRLPRPRPRPPVVPRP
shrunken log2 fold change: 0.753

RRIRWRPPRLPRPRPRPVKYPRP
shrunken log2 fold change: -0.632

RRIRARPPRLPRPRPRPLCRPRP
shrunken log2 fold change: 0.327

RRIRTRPPRLPRPRPRPFRDPRP
shrunken log2 fold change: -0.205

RRIRNRPPRLPRPRPRPVSDPRP
shrunken log2 fold change: -0.192

RRIRSRPPRLPRPRPRPNFIPRP
shrunken log2 fold change: -0.391

RRIRNRPPRLPRPRPRPHGNPRP
shrunken log2 fold change: -0.189

RRIRLRPPRLPRPRPRPHRHPRP
shrunken log2 fold change: -0.361

RRIRMRPPRLPRPRPRPPEKPRP
shrunken log2 fold change: 2.49

RRIRPRPPRLPRPRPRPLSAPRP
shrunken log2 fold change: 0.281

RRIRWRPPRLPRPRPRPLHPPRP
shrunken log2 fold change: 0.597

RRIRKRPPRLPRPRPRPNGGPRP
shrunken log2 fold change: 0.0116

RRIRTRPPRLPRPRPRPGICPRP
shrunken log2 fold change: -0.0258

RRIRFRPPRLPRPRPRPAEIPRP
shrunken log2 fold change: -0.228

RRIRYRPPRLPRPRPRPKQCPRP
shrunken log2 fold change: -0.17

RRIRERPPRLPRPRPRPQYHPRP
shrunken log2 fold change: -0.172

RRIRARPPRLPRPRPRPNKAPRP
shrunken log2 fold change: 0.00219

RRIRLRPPRLPRPRPRPVHIPRP
shrunken log2 fold change: -0.182

RRIRVRPPRLPRPRPRPTDVPRP
shrunken log2 fold change: 0.0418

RRIRNRPPRLPRPRPRPDFKPRP
shrunken log2 fold change: -0.0167

RRIRSRPPRLPRPRPRPNNVPRP
shrunken log2 fold change: -0.592

RRIRERPPRLPRPRPRPATYPRP
shrunken log2 fold change: -0.275

RRIRRRPPRLPRPRPRPSMLPRP
shrunken log2 fold change: -0.172

RRIRVRPPRLPRPRPRPAIDPRP
shrunken log2 fold change: 0.0602

RRIRYRPPRLPRPRPRPMFMPRP
shrunken log2 fold change: -1.22

RRIRWRPPRLPRPRPRPPQHPRP
shrunken log2 fold change: 0.275

RRIRGRPPRLPRPRPRPFDQPRP
shrunken log2 fold change: 0.2

RRIRYRPPRLPRPRPRPGRHPRP
shrunken log2 fold change: -0.203

RRIRERPPRLPRPRPRPGGRPRP
shrunken log2 fold change: 0.27

RRIRTRPPRLPRPRPRPMKLPRP
shrunken log2 fold change: -0.192

RRIRYRPPRLPRPRPRPVLWPRP
shrunken log2 fold change: 0.0894

RRIRLRPPRLPRPRPRPLHIPRP
shrunken log2 fold change: -0.367

RRIRERPPRLPRPRPRPWGDPRP
shrunken log2 fold change: 0.108

RRIRLRPPRLPRPRPRPHLEPRP
shrunken log2 fold change: 0.0765

RRIRGRPPRLPRPRPRPEVLPRP
shrunken log2 fold change: 1.83

RRIRCRPPRLPRPRPRPFQTPRP
shrunken log2 fold change: -0.153

RRIRLRPPRLPRPRPRPHFNPRP
shrunken log2 fold change: -0.386

RRIRNRPPRLPRPRPRPHFQPRP
shrunken log2 fold change: 0.0313

RRIRHRPPRLPRPRPRPMGCPRP
shrunken log2 fold change: -0.000946

RRIRPRPPRLPRPRPRPFMIPRP
shrunken log2 fold change: 0.471

RRIRWRPPRLPRPRPRPCRCPRP
shrunken log2 fold change: -0.0961

RRIRERPPRLPRPRPRPYGDPRP
shrunken log2 fold change: -0.218

RRIRKRPPRLPRPRPRPELLPRP
shrunken log2 fold change: 0.394

RRIRTRPPRLPRPRPRPFHEPRP
shrunken log2 fold change: -0.126

RRIRDRPPRLPRPRPRPIADPRP
shrunken log2 fold change: 0.163

RRIRYRPPRLPRPRPRPYGNPRP
shrunken log2 fold change: -0.00695

RRIRWRPPRLPRPRPRPNGYPRP
shrunken log2 fold change: 0.186

RRIRLRPPRLPRPRPRPAVEPRP
shrunken log2 fold change: -0.0223

RRIRSRPPRLPRPRPRPLQDPRP
shrunken log2 fold change: -0.129
